Test results published in US20240084003A1 (SIMCERE ZAIMING PHARMACEUTICAL, published 2024).
Values belong to the binder of their own block, whether it stands above or below them.

Columns and labels:
[1] = target: T1, human CD22-ECD-His protein (human, UniProt P20273 20-687); assay: ELISA, Ab 10.00 nM
T1 construct: Made in house in HEK293E; also called hCD22-ECD-His; recombinant human CD22-ECD His protein; not shown: His tag
T1 sequence: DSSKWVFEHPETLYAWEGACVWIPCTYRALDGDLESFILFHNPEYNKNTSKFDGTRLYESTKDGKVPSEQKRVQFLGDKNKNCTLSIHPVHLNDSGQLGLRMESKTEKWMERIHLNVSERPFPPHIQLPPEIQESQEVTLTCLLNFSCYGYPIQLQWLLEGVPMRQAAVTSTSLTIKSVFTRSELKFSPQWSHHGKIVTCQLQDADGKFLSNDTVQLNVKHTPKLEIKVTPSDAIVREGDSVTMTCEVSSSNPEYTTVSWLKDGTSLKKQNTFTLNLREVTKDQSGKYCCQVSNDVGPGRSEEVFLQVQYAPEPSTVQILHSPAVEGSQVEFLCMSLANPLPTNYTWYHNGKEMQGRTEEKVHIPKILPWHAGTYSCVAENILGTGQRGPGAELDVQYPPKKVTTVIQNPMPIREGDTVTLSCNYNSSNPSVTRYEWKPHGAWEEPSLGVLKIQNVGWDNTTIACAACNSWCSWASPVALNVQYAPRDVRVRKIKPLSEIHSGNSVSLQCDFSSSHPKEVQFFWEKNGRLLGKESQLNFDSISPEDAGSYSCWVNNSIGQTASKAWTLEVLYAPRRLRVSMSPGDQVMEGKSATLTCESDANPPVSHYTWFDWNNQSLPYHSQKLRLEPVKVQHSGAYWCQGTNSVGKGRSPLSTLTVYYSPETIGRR
Summary of the method: (§1)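 TMB colour read-out, stopped with 1.0 N HCl after 30 min at room temperature, measures binding of CD22 human-murine chimeric antibodies to plate-coated CD22-ECD-His (2 μg/mL, overnight 4 °C). Antibody and HRP secondary steps each ran 2 h at 37 °C.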

human CD22 domain1-4-His = target: T2, human CD22 domain1-4-His (human, UniProt P20273 20-425); assay: ELISA, human CD22 domain1-4-His coated
T2 construct: also called hCD22 domain1-4-His; not shown: His tag
T2 sequence: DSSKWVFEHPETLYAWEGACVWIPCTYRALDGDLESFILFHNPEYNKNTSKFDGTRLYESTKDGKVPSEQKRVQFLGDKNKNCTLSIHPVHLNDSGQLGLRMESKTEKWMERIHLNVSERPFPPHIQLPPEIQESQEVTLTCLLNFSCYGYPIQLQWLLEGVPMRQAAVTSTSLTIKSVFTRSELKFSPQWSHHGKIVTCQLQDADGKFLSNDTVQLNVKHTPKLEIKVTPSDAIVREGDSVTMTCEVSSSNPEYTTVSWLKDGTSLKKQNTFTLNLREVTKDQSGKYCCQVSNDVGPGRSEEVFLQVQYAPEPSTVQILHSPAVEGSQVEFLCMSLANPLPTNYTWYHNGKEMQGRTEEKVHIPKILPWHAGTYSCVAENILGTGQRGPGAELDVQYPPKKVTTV

[2] = target: T1, human CD22-ECD-His protein; assay: ELISA, human CD22-ECD-His coated
Summary of the method: as §1

[3] = target: T1, human CD22-ECD-His protein; assay: ELISA, Ab 0.01 nM
Summary of the method: as §1

[4] = target: T1, human CD22-ECD-His protein; assay: ELISA, Ab 0.001 nM
Summary of the method: as §1

[5] = target: T1, human CD22-ECD-His protein; assay: ELISA, Ab 0.0001 nM
Summary of the method: as §1

[6] = target: T3, monkey CD22 protein (ACROBiosystems, SI2-R52Ha) (monkey (rhesus monkey in paragraph 148), UniProt H9G1X2 18-686); assay: ELISA, monkey CD22-ECD-His coated
T3 construct: extracellular domain; also called monkey CD22-ECD; monkey CD22-ECD-His
T3 sequence: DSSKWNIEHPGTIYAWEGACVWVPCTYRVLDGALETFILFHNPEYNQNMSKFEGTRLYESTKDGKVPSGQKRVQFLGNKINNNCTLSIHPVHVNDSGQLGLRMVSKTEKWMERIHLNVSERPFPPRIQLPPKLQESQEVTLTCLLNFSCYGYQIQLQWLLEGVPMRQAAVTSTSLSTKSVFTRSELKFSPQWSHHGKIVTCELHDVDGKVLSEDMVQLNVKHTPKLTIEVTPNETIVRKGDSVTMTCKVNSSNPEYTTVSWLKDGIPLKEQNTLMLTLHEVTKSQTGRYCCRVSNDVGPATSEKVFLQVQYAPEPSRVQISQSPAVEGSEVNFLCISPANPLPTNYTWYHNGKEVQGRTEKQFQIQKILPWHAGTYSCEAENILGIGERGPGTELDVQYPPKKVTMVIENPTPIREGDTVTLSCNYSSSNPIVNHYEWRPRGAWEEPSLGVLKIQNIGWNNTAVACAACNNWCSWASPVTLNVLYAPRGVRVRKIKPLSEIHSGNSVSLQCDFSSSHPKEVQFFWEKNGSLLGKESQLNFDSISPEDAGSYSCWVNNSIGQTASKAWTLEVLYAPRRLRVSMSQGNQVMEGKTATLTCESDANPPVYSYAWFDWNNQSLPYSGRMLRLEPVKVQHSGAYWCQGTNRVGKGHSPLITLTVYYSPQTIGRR
Summary of the method: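 Read-out is TMB absorbance after a 30 min room-temperature development stopped with 1.0 N HCl. It reflects chimeric antibody bound to plate-coated CD22 (2 μg/mL), detected with an HRP-labelled secondary antibody. Antibody and secondary incubations each ran 2 h at 37° C.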

[7] = target: T1, human CD22-ECD-His protein; assay: ELISA, Ab 100.00 nM
Summary of the method: as §1

- OD450 [1]: 2.55 OD450
- binding result (human CD22 domain1-4-His): no binding (tested: 100 nM)
- EC50 (read off the curve) [2]: ~0.05 nM
- OD450 [3]: 1.75 OD450
- OD450 [4]: 0.47 OD450
- OD450 [5]: 0.13 OD450
- binding result [6]: no binding (tested: 100 nM)
- OD450 [7]: 2.82 OD450
B1: F1.60.9 (antibody, human IgG1, kappa, V domains shown)
VH: QVQLKESGPGLVAPSQSLSITCTVSGLSLNNYGVSWVRQPPGKGLEWLGVIWGDGSTNYHSALISRLSISKDNSKSQVFLKLNSLHTDDTATYYCAINWGDYWGQGTTLIVSS
VL: DIKMTQSPSSMNASLGERVTITCKASQDINSYLSWFQQKPGKSPKILIYRANRLIDGVPSRFSGSGSGQDYSLTISSLEYEDMGIYYCLQYGVFPLTFGAGTKLELKR
notes: Human-murine chimeric IgG1, kappa

- OD450 [1]: 1.84 OD450
- EC50 (read off the curve) (human CD22 domain1-4-His): ~0.06 nM
- EC50 (read off the curve) [2]: ~0.06 nM
- OD450 [3]: 1.29 OD450
- OD450 [4]: 0.43 OD450
- OD450 [5]: 0.25 OD450
- binding result [6]: no binding (tested: 100 nM)
- OD450 [7]: 1.94 OD450
B2: F2.343.16 (antibody, human IgG1, lambda, V domains shown)
VH: QVQLKQSGPGLVQPSQSLSITCTVSGFSLTGYGVQWVRQSPGKGLEWLGVIWGGGGTDYNAAFISRLNIIKDNSKSQVFFKMNSLQADDTAIYYCARYSKYGHFDVWGTGTAVTVSS
VL: QAVVTQESALTTSPGETVTLTCRSSTGAVTTSNYANWVQEKPDHLFTGLIGGTYNRVPGVPARFSGSLIGDKAALTITGAQTEDEAIYFCALWYSNHFWVFGGGTKLTVLG
notes: Human-murine chimeric IgG1, lambda
